Experimental data as given in IntAct's records for PubMed 31515488.

B1: MAGUK p55 subfamily member 2 (Homo sapiens), Q14168-2 (parent)
chain: MPVAATNSETAMQQVLDNLGSLPSATGAAELDLIFLRGIMESPIVRSLAKAHERLEETKLEAVRDNNLELVQEILRDLAHVAEQSSTAAELAHILQEPHFQSLLETHDSVASKTYETPPPSPGLDPTFSNQPVPPDAVRMVGIRKTAGEHLGVTFRVEGGELVIARILHGGMVAQQGLLHVGDIIKEVNGQPVGSDPRALQELLRNASGSVILKILPSYQEPHLPRQVFVKCHFDYDPARDSLIPCKEAGLRFNAGDLLQIVNQDDANWWQACHVEGGSAGLIPSQLLEEKRKAFVKRDLELTPNSGTLCGSLSGKKKKRMMYLTTKNAEFDRHELLIYEEVARMPPFRRKTLVLIGAQGVGRRSLKNKLIMWDPDRYGTTVPYTSRRPKDSEREGQGYSFVSRGEMEADVRAGRYLEHGEYEGNLYGTRIDSIRGVVAAGKVCVLDVNPQAVKVLRTAEFVPYVVFIEAPDFETLRAMNRAALESGISTKQLTEADLRRTVEESSRIQRGYGHYFDLCLVNSNLERTFRELQTAMEKLRTEPQWVPVSWVY
partner: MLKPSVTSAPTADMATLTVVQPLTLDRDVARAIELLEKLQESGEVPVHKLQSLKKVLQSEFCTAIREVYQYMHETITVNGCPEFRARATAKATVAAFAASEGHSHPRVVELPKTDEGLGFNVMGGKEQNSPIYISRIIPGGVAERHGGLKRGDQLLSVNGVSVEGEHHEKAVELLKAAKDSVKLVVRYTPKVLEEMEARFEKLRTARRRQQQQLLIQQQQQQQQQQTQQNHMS
B2: Zinc finger CCHC domain-containing protein 10 (Homo sapiens), Q8TBK6 (parent)
chain: MATPMHRLIARRQAFDTELQPVKTFWILIQPSIVISEANKQHVRCQKCLEFGHWTYECTGKRKYLHRPSRTAELKKALKEKENRLLLQQSIGETNVERKAKKKRSKSVTSSSSSSSDSSASDSSSESEETSTSSSSEDSDTDESSSSSSSSASSTTSSSSSDSDSDSSSSSSSSTSTDSSSDDEPPKKKKKK
partner: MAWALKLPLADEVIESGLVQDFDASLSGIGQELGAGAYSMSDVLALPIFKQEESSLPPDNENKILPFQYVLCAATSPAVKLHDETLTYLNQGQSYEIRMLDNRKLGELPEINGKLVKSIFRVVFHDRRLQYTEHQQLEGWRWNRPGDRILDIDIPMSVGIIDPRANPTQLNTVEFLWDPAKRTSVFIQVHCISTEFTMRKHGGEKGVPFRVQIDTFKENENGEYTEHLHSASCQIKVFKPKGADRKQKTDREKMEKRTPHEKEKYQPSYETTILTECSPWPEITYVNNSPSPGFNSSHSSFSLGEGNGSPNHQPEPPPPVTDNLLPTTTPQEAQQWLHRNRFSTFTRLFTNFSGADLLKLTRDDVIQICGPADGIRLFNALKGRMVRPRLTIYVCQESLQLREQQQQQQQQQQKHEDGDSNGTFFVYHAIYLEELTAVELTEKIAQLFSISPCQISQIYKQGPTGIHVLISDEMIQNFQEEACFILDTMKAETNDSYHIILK
B3: Tuftelin-interacting protein 11 (Homo sapiens), Q9UBB9 (parent)
chain: MSLSHLYRDGEGRIDDDDDERENFEITDWDLQNEFNPNRQRHWQTKEEATYGVWAERDSDDERPSFGGKRARDYSAPVNFISAGLKKGAAEEAELEDSDDEEKPVKQDDFPKDFGPRKLKTGGNFKPSQKGFAGGTKSFMDFGSWERHTKGIGQKLLQKMGYVPGRGLGKNAQGIINPIEAKQRKGKGAVGAYGSERTTQSMQDFPVVDSEEEAEEEFQKELSQWRKDPSGSKKKPKYSYKTVEELKAKGRISKKLTAPQKELSQVKVIDMTGREQKVYYSYSQISHKHNVPDDGLPLQSQQLPQSGKEAKAPGFALPELEHNLQLLIDLTEQEIIQNDRQLQYERDMVVNLFHELEKMTEVLDHEERVISNLSKVLEMVEECERRMQPDCSNPLTLDECARIFETLQDKYYEEYRMSDRVDLAVAIVYPLMKEYFKEWDPLKDCTYGTEIISKWKSLLENDQLLSHGGQDLSADAFHRLIWEVWMPFVRNIVTQWQPRNCDPMVDFLDSWVHIIPVWILDNILDQLIFPKLQKEVENWNPLTDTVPIHSWIHPWLPLMQARLEPLYSPIRSKLSSALQKWHPSDSSAKLILQPWKDVFTPGSWEAFMVKNIVPKLGMCLGELVINPHQQHMDAFYWVIDWEGMISVSSLVGLLEKHFFPKWLQVLCSWLSNSPNYEEITKWYLGWKSMFSDQVLAHPSVKDKFNEALDIMNRAVSSNVGAYMQPGARENIAYLTHTERRKDFQYEAMQERREAENMAQRGIGVAASSVPMNFKDLIETKAEEHNIVFMPVIGKRHEGKQLYTFGRIVIYIDRGVVFVQGEKTWVPTSLQSLIDMAK
partner: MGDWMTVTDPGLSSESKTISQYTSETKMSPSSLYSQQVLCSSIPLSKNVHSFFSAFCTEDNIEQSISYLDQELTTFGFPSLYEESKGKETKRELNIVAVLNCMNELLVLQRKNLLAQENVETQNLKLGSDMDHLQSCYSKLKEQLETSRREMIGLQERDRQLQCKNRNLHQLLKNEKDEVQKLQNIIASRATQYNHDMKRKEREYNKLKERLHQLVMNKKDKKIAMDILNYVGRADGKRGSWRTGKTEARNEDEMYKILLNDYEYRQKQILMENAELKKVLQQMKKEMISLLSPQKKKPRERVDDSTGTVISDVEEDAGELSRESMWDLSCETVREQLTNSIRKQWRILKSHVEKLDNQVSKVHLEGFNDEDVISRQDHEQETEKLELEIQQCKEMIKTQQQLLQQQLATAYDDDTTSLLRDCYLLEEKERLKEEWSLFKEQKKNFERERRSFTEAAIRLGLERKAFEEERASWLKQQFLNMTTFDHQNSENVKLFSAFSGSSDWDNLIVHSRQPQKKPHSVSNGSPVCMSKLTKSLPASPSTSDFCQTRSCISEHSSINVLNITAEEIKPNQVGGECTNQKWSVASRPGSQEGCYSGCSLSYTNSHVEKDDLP

Variants of: B1
Settings: with lin7a_human LIN7A

Row | Variant | effect of a mutation on the interaction
1 | MPVAATNSETAMQQVLDNLGSLPSATGAAELDLIFLRGIMESPIVRSLAKAHERLEETKLEAVRDNNLELVQEILRDLAHVAEQSSTAAELAHILQEPHFQSLLETHDSVASKTYETPPPSPGLDPTFSNQPVPPDAVRMVGIRKTAGEHLGVTFRVEGGELVIARILHGGMVAQQGLLHVGDIIKEVNGQPVGSDPRALQELLRNASGSVILKILPSYQEPHLPRQVFVKCHFDYDPARDSLIPCKEAGLRFNAGDLLQIVNQDDANWWQACHVEGGSAGLIPSQLLEEKRKAFVKRDLELTPNSGTLCGSLSGKKKKRMMYLTTKNAEFDRHELLIYEEVARMPPFRRKTLVLIGAQGVGRRSLKNKLIMWDPDRYGTTVPYTSRRPKDSEREGQGYSFVSRGEMEADVRAGRYLEHGEYEGNLYGTRIDSIRGVVAAGKVCVLDVNPQAVKVLRTAEFVPYVVFIEAPDFETLRAMNRAALESGISTKQLTEADLRWTVEESSRIQRGYGHYFDLCLVNSNLERTFRELQTAMEKLRTEPQWVPVSWVY [R500W] | with no effect

Variants of: B2
Settings: with tfcp2_human TFCP2, Q12800

Row | Variant | effect of a mutation on the interaction
2 | S153P | with no effect

Variants of: B3
Settings: with adip_human SSX2IP

Row | Variant | effect of a mutation on the interaction
3 | R8Q | with no effect
4 | S688L | with no effect
